The values that follow come from US20230303623A1, “PEPTIDES AND METHODS OF USE” (REALTA LIFE SCIENCES, INC., priority 2020, published 2023).

Entries after “also recorded” stand apart in the source; their conditions may differ.

The target in one assay is T1, C1q (Homo sapiens, UniProt P02745+P02746+P02747).
T1 construct: purchased Complement Technology (Tyler, TX)
In words: C1q binding ELISA-type assay. Conditions: compared to parent peptide. As for the experimental part: The C1q binding assay was performed as previously described. Briefly, an Immunlon-2 HB ELISA plate was coated with 1 μg/ml C1q in bicarbonate buffer overnight at 4° C. The plates were washed with PBS-T (phosphate buffered saline+0.1% Tween) and then blocked with 1% gelatin/PBS for 2 hours at room temperature. After washing, the plates were incubated with the peptides starting at 2.5 mg/ml and then serially diluted in 1% gelatin/PBS for 1 hour at room temperature followed by washing. Plates were then probed with rabbit antibody raised against the lead peptide […] (SEQ ID NO: 2) that lacked PEGylation at 1:1000 in 1% gelatin/PBS for 1 hour at room temperature followed by a goat anti-rabbit HRP (Sigma Aldrich, St Louis, MO) at 1:1,000 in 1% gelatin/PBS for 1 hour at room temperature with a washing step in between. After addition of TMB substrate solution to the wells, the reaction was stopped using 1N H2SO4, and the plate read on a BioTek Synergy HT plate reader at 450 nm.
The astrovirus capsid protein and the PIC1 molecules derived from it inhibit classical complement pathway activation by binding to the pattern recognition molecule C1q. The inventors next tested peptide variant binding to C1q in an ELISA-type assay in which C1q is used as the capture substrate and bound peptide detected with a rabbit polyclonal antibody against the peptide portion of PA-dPEG24 ([…]-d24; SEQ ID NO: 3). Binding curves were derived for the stapled and D-amino acid peptides based on the PA-I8Sar and PA-C9Sar (FIG. 5A-5C) backbone, from which half-maximal binding concentrations were calculated (FIGS. 2A and B, respectively). […] For the peptides based on the PA-C9Sar backbone, C1q was bound to a greater degree than the parent peptide (FIG. 2B).
In general terms: An ELISA detects its analyte on a solid surface through an enzyme-linked reagent.

Assay [1] is described as follows: Total Antioxidant Capacity (TAC) assay. Conditions: highest peptide concentration 1.5 mM; compared to parent peptide. The method, boiled down:
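Copper(II)-to-copper(I) reduction kit used per manufacturer to measure antioxidant capacity of PIC1 peptide variants over a concentration range; activity reported at the highest peptide concentration, 1.5 mM.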

For another assay, the target named is T2, VEGF (Homo sapiens, UniProt P15692).
T2 construct: Promega (bioassay)
T2 sequence (P15692 27-191 isoform P15692-4): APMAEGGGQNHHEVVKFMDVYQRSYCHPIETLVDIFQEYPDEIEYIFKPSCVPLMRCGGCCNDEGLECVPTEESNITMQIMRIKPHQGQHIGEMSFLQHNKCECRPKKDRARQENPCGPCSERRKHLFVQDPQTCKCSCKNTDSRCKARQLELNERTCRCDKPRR
The experiment in a line: VEGF Bioassay (Promega), VEGF signaling via VEGFR-2 (KDR). The assay is classed as cell-based. The source says: Luminescence was detected in luminometer plate reader.
Angiogenesis, or the formation of new blood vessels from the established vasculature, is an essential element in tumor growth and metastasis formation. Inhibiting tumor angiogenesis is considered a major therapeutic strategy in oncology. […] The bioluminescent signal is detected in a luminometer.

The subject of another assay is TC-1 cells. The experiment in a line: TC-1 tumor cell model in C57Bl/6 mice. The class given is in vivo, mouse. As for the experimental part:
Animals were injected with 4×10^5 TC-1 cells subcutaneously into the flank of the animal. Five days later, animals received vehicle treatment with saline (n=6), or drug treatment with RLS-0122 (n=8) IV at 160 mg/kg 1×/day for 15 consecutive days. Animals were also evaluated for behavior and body condition scoring every 2 days for duration of the study. If scoring reached 7 or below, animals were assessed daily. A score of 5 or below was considered endpoint for euthanasia.
To evaluate the efficacy of RLS-0122 in an in vivo system, the inventors utilized the TC-1 tumor cell model in C57Bl/6 mice as previously reported (Roumenina et al., Cancer Immunol Res; 7(7) July 2019). […] When TC-1 cells are introduced into the flank of the mouse, very aggressive tumor formation occurs, resulting in 100% death in approximately 26 days. To test the efficacy of RLS-0122 on survival and quality of life in this model, animals were injected with 4×10^5 TC-1 cells subcutaneously into the flank of the animal. Five days later, animals received vehicle treatment with saline (n=6), or drug treatment with RLS-0122 (n=8) IV at 160 mg/kg 1×/day for 15 consecutive days. […] Animals were also evaluated for behavior and body condition scoring every 2 days for duration of the study. If scoring reached 7 or below, animals were assessed daily. A score of 5 or below was considered endpoint for euthanasia.

The next assay addresses T3, CTLA-4 (Homo sapiens, UniProt P16410).
T3 sequence (P16410 36-223): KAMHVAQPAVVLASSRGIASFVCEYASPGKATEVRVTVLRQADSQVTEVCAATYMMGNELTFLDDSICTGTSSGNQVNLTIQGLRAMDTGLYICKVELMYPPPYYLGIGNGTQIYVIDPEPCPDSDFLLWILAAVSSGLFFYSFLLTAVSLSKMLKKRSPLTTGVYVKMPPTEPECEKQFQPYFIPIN
The experiment in a line: CTLA-4 Blockade Bioassay (Promega). Conditions: increasing concentrations; listed as RLS-0122. Set-up: host or cells: Jurkat T cells (CTLA-4 effector cells) co-cultured with aAPC/Raji cells. The assay is classed as cell-based. How it is done:
CTLA-4 effector cells were incubated with aAPC/Raji Cells in the absence or presence of increasing concentrations of anti-CTLA-4 antibody (positive control), RLS-0122, RLS-0150, RLS-0154, RLS-0164 and RLS-0168 and RLS-0088 (negative control). Luminescence was detected in luminometer plate reader. The drop-off in signal with the test peptides at high concentrations is due to cell death as a result of peptide buffer effects on the cells.
To assess if PIC1 peptides could block CTLA-4 inhibitory activity in a cell-based assay, select peptides were screened in the CTLA-4 Blockade Bioassay (Promega). This bioluminescent cell-based assay can be used to measure the potency and stability of molecules targeting CTLA-4 and consists of two genetically engineered cell lines: CTLA-4 effector cells: Jurkat T cells expressing human CTLA-4 and a luciferase reporter driven by a native promoter which responds to TCR/CD28 activation and aAPC/Raji Cells: Raji cells expressing an engineered cell surface protein designed to activate cognate TCRs in an antigen-independent manner and endogenously expressing CTLA-4 ligands CD80 and CD86. When the two cell types are co-cultured, CTLA-4 competes with CD28 for their shared ligands, CD80 and CD86 and thus inhibits CD28 pathway activation and promoter-mediated luminescence. Addition of a molecule that blocks the interaction of CTLA-4 with its ligands CD80 and CD86 results in promoter-mediated luminescence.

T1 sequence (P02745 23-245): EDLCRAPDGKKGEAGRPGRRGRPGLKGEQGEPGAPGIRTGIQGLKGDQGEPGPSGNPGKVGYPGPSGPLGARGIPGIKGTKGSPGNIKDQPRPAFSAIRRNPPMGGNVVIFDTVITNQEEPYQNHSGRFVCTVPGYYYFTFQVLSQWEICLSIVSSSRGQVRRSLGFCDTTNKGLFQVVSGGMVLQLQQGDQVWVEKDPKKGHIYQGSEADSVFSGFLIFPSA
T1 sequence (P02746 28-253): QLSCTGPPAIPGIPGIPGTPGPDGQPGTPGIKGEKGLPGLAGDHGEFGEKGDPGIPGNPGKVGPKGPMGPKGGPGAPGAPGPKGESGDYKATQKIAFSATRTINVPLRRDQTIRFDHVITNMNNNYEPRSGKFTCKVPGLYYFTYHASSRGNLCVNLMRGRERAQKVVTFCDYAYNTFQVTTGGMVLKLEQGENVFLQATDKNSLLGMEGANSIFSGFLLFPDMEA
T1 sequence (P02747 29-245): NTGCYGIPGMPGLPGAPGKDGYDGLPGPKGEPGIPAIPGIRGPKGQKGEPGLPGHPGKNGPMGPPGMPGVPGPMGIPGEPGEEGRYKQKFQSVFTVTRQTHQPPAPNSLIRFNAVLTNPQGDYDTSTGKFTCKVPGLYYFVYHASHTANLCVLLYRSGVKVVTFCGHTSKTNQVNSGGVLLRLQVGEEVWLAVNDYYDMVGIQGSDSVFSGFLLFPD

Turning to “IAdLILEP(Sar)CCQERAA (IALILEPXCCQERAA; D-Leu; sarcosine; MOD_RES (3)..(3) D-amino acid; MOD_RES (8)..(8) Sarcosine) [PA-0122]”, in the assay with C1q, the “binding to C1q (binding curves, half-maximal binding), in words” value is listed as “markedly increased binding to C1q”. The “total antioxidant capacity, in words” value in assay [1] was “slight increase in total antioxidant capacity”. The “inhibition of VEGF signaling via VEGFR-2 (luminescence), in words” value with VEGF is on record as “did not inhibit signaling”. In addition, the “median survival longer than vehicle” value with TC-1 cells (IV 160 mg/kg 1x/day for 15 consecutive days, p=0.0465) is 8 days. Also, the “quality of life (behavior and body condition scoring), in words” value with TC-1 cells (IV 160 mg/kg 1x/day for 15 days, significant on days 22-26 (p<0.05)) was “increased quality of life”. The “inhibition of CTLA-4 mediated cell signaling (increase in luminescence), in words” value with CTLA-4 was “showed inhibitory activity; also recorded: able to inhibit CTLA-4 mediated cell signaling”.
